According to the DeepSol protein solubility set:

Assay: soluble on expression in E. coli; label from the status in PepcDB or PDB records

Soluble on expression in E. coli, soluble:
MVLVLDFGSQYTRLIARRLRELRAFSLILPGDAPLEEVLKHRPQALILSGGPRSVFDPDAPRPDPRLFSSGLPLLGICYGMQLLAQELGGRVERAGRAEYGKALLTRHEGPLFRGLEGEVQVWMSHQDAVTAPPPGWRVVAETEENPVAAIASPDGRAYGVQFHPEVAHTPKGMQILENFLELAGVKRDWTPEHVLEELLREVRERAGKDRVLLAVSGGVDSSTLALLLAKAGVDHLAVFVDHGLLRLGEREEVEGALRALGVNLLVVDAKERFLKALKGVEDPEEKRKIIGREFVAAFSQVARERGPFRFLAQGTLYPDVIESAGGHGAAKIKSHHNVGGLPEDLEFELLEPFRLLFKDEVRELALLLGLPDTLRLRHPFPGPGLAVRVLGEVTEERLEILRRADDIFTSLLRERGLYEKVAQALAVLTPVRSVGVAGDERKYGYVLALRAVTTEDFMTADWARLPLEFLDEAARRITRRVPEIGRVVYDLTSKPPATIEWE
MVMVLDSLGRALSNALKKIARAGSVDEALVKEVVRDIQRALLQADVNVRLVLKLTKEIQRRALEEKPPAGISKKEHIIKIVYEELTKFLGTEAKPIEIKEKPTVLLTVGVQGSGKTTTVAKLARYFQKRGYKVGVVCSDTWRPGAYHQLKQLLDPYHIEVFGDPNEKDAVKLAKEGVEYFKTRDVDLIIVDTAGRHKEEKDLIEEMRMISEEIRPHEVILVIDGTIGQQAYNQALAFKEATPIGSIIVTKLDSSAKGGGALSAVAATGAPIKFIGVGEKIDDLEPFDPARFVSRLLGLGDIQGLLEKFKELEKEVEFTEEDIDRFLRGKFTLKDMYAQLEAMRKMGPLKQILRMIPGLGYSLPDELISVGEERLRKFKVIMDSMTEEELMNPEIINYSRIKRIARGSGTSIKDVKELLTQYNQMKKFFKSMNKRQLSRLARRFGM
MVNGDGNPREVIEDLAANNPAIQNIRLRHENKDLKARLENAMEVAGRDFKRAEELEKAKQALEDQRKDLETKLKELQQDYDLAKESTSWDRQRLEKELEEKKEALELAIDQASRDYHRATALEKELEEKKKALELAIDQASQDYNRANVLEKELE
MVQVGAAAINRVDVAVIGGGIAGVAIAEYVARHTNLSVQLLEQNSHLGGDSSGKLEGWFHTGALYSGQDDGQTFFNCVNGVEDLLNHYSHYFAGRCNLTLEQFDHGYRPTVTGAGWFDPNPVYLIHPQRHSPEMLQSGLKGDRVQLEMQLKRVLGRLEMAYGQQFNWRSPTGNGAVAPDYDHLESYEQRSCSLLGQSEKISHYCQQFDLSHGVKPSDYALLKSLDCAMDTQGILQDLTASALAHGTAIATGINLEQINVDRYGPVRVQSIFYRDCQGQQHYLKAKAFIFAVGAGFERILPTLQVRAKLKQSRSTMVVAYPAISSHNFVRMSTKNSYHFNHFFQRANIPDSSEFLNYSMLANSGYVSNENDYLASGEIELLLDTAARYFSEENLYQRQLWSYDCVKTEFISDDAQKRRYSYWIEVNPQSNYLCVLPGKFSFFPTVAVQTLKQLKTILPTEEVDRSHRDYSAHYHQAQALVASPYPHQLLASYWKNNANSLEHHHHHH
MVRGFYLRFGEGVSEEANRRALALAEALLRAPPPGLLDAVPAYGVLYLEYDPRRLSRGRLLRLLKGLPQERAEEGRVVEIPVRYDGEDLPEVASRLGLSLEAVKALHQKPLYRVYALGFTPGFPFLAEVEPALRLPRKPHPRPRVPAHAVAVAGVQTGIYPLPSPGGWNLLGTSLVAVYDPHRETPFLLRPGDRVRFLEAEGPTPPEPRPLELLPEEPRLPALLVEEPGLMDLVVDGGRFLGGHLGLARSGPLDAPSARLANRLVGNGAGAPLLEFAYKGPVLTALRDLVAAFAGYGFVALLEGEEIPPGQSFLWPRGKTLRFRPRGPGVRGYLAVAGGLEVRPFLGSASPDLRGRIGRPLWAGDVLGLEALRPVRPGRAFPQRPLPEAFRLRLLPGPQFAGEAFRALCSGPFRVARADRVGVELLGPEVPGGEGLSEPTPLGGVQVPPSGRPLVLLADKGSLGGYAKPALVDPRDLWLLGQARPGVEIHFTSG
MVSAKDFSGAELYTLEEVQYGKFEARMKMAAASGTVSSMFLYQNGSEIADGRPWVEVDIEVLGKNPGSFQSNIITGKAGAQKTSEKHHAVSPAADQAFHTYGLEWTPNYVRWTVDGQEVRKTEGGQVSNLTGTQGLRFNLWSSESAAWVGQFDESKLPLFQFINWVKVYKYTPGQGEGGSDFTLDWTDNFDTFDGSRWGKGDWTFDGNRVDLTDKNIYSRDGMLILALTRKGQESFNGQVPRD
MVSAPASASSSPASSSFQSFFWQAAARPRAEPKRQALKRITLMTTDKTSPYEIHDDRFRHLIVGNAELEELYSGCRWAEGPVWFADLNCLLFSDIPNERMLRWVPDGGISVFRQPSNFTNGNTRDRQGRLVSCEHGGRRVTRTEVDGSITVLADSYGGKRLNSPNDVVVKSDGSVWFTDPTYGILSDYEGYKAEPEQKTRNVYRLDPATGKIDIAIDDFVQPNGLAFSPDETKLYVADSSYSHDISRPRHIRVFDVVDGVRLANGREFCNLDNGLPDGFRLDTAGNLWTSAGDGVHCFAPDGRLIGKIKVPQTVANLTFGGPKKNRLFITATKSLYSVYVAATGAQTPLEHHHHHH
MVSETSEETLYCIGCGAAIQTTDPKAAGYTPNSALQKSLASEAQDLYCQRCFRLRHYNEIVPVGLTDDDFRHLLATIRDANALVVYVVDIFDLNGSIIPGLQRFVGDNPVLLVGNKEDVLPRQLRRTKLREWMNQQVRAQGIKPVDVALTSAKKGHSIDELLAMIEKYRRGRDVYVVGVTNVGKSTLINRIIANNTGLKDLITTSRFPGTTLDKIEIPLDDGHMMVDTPGIIHPEQMAHVLSGDDLKLVSPQREIRPKGFQLGNGQTLFLGGVARLDIVDTLKATGTVYVDNNLPLHRTRTENADNFYTKHVGELITPPTGDAVADFPPLVRHEFKVTEISDIVFEGLGWVTVAADTRVAAWAPKGVAVLTRPAMINKRLEHHHHHH
MVSSSSGLPSHRGPILSALYPGNGRGGYTASRGIHTSLLFRHRNAKLAWMIPRRLQPLLEARLEKVPVVVLTGPRQAGKTTLALEVAQRREALYLDLESEADRAKLSAPELYLEAHLGRLVILDEVHRMPGLFPLLRSLVDRARRRGLRNGLYLLLGSLAPEVSRQAGESLAGRASYLELSPFDLLEVGREAEPVLWLRGGFPESFLALEDEESFRWRMDFLRSYVEREIPLLGGRLPAEVLRRFLTMLAHLQGELLNASALARNLGLDGRTVNRYLDFLVDLYLLRRLPPLEANVGKRLVKSPKLYLRDSGLVHALLGIRTLEDLLAHPVVGRSYEGFVVENLLRVLPEGGEAYFYRTRAGAEVDLVLLLPGGRFWAVEVKRSLDPRPSRGFHEALKDLKPQEAFVIYPGGETFPVGEGVFAAPLGAVMERLWRG

Soluble on expression in E. coli, not soluble:
MVLTGVTSKAIRKGDAEPPLSKGSFRVYNMRFCPWAERAMLYVAAKGIEAEVVNLNVTDKLEWYWTKHYQGKAPAVEHNGKVVIESGFIPEYLDDAFPETRILPTDPYEKVQQKLLADRLTAVAHAVPLLFAVMRDRTLKDEKQRKVFEVLKQAENLLANDFYAGSQPGYPDYLSFPFFEKIWWSASLDGVVDLPTIEFPGEEEYPKLTKWFQKMISSDVVQSVTQSLEHGAAFMNAYATHQELNYDLGL
MVMSQKTLFTKSALAVAVAIISTQAWSAGFQLNEFSSSGLGRAYSGEGAIADDAGNVSRNPALITMFDRPTFSAGAVYIDPDVNISGTSPSRRTLDADNIAPTAWVPNVHFVAPINDQFGWGASITSNYGLATEFNDTYAGGSVGGTTDLETMNLNLSGAYRLNEAWSFGLGFDAVYARAKIERFAGDLGQLVAAQNPALAPVAGQIPSDTKIAHLNGNQWGFGWNAGILYELDKNNRYALTYRSEVKIDFKGNYSSDLPIAINRFNLPIPTATGGATQSGYLTLNLPEMWEVSGYNRVAPQWAIHYSLAYTSWSQFQELKAKSTAGDTLFEKHEGFKDAYRIALGTTYYYDDNWTFRTGIAFDDSPVPAQNRSISIPDQDRFWLSAGTTYAFNKDASVDVGVSYMHGQSVKINEGPYQFESEGKAWLFGTNFNYAF
MVNKRTVTELSLFAGLIVSMHVAYYTIQNNPSLVAPHQRQELFYVRWLKEKIPALRPYGVTDDKTPKADQ
MVNREIVMDYILSCLQDLVENGVEIKPDSDLVNDLGLESIKVMDLLMMLEDRFDISIPINILLDVKTPAQLMETLLPWLENK
MVQEIEQWLRRHQVFTEPAYLGETAILLGQQFILSPYLVIYRIEAKEMIICEFRRLTPGQPRPQQLFHLLGLLRGIFVHHPQLTCLKMLIITDVLDEKKAMLRRKLLRILTVMGATFTQLDGDNWTVLSAEHLIQRRF
MVQNDETQYIARILDGDTECFSAFLDRYSRPLYVLIVQIVGCSEDAEELVQDVFLKAFRCLGSYRGECRFSTWLYRIAYTTAVSATRKKKQEFLYIEENTINNVPDEKADDILYPTDDEERTARLIQAIDLLNVEEKALITLFYYEEKSIEEIGEVLKLSPGNVKVKLHRTRKKIYVLMNGKE
MVQPDDVLLGRYKIRFDIGPGRIGRIFAVLDQQDQSRSRVKVIKVLPMVAGEQFLDDPQTYNEFDFLNHLRGTIGVPNIIQHFQVGRERVMMMDKYLATLEQFRTRCDDRRISDLNIIKIAVRLVNVLEAIHQKGVIHRDLKTTNVMIRSRGQSEVNLVLIDYGLSTFNGTPPRALAPDAKSPEIMFRGHTHVSPALEEGLKADAVDDLQMLAIMLIWCSAYHPFGPIGQESSRKKAEFITNPVKYVKGRPFLRPLMTAIMAQPRGTRPNYQAILDAAAGPFPIDDIRDSLKTEISLLGVRFL
MVSYQILLLLVSILPLTYSIRTSKWHFSGKLLCPLYTFKYHLEVFEEDYFRKTDDLLTNQTEVSSISPHLYKVDAEETDDGLDFGRHFEIYMLIIHDCNPDRYVKSLKVDWGKYHIDIEFVTFYALKFEIFSEVSEVKDIDVFGKGSAL
MVTCGSIFIIRIACKDKKGQASGKDNKEKRVFRAVTGNKSESYFPFGHIFIFSQGATRTDEKSFLLSEDYEPKTVGLRCVFWRKHAREIFRFGSKNFYFSRHNEKIFAPRLFQPYSGFFSNDKREKVSMCHR
MVTEKTLRTCEQGHEYYKSSDCPTCPVCEKERKPKESFLSLLSAPARRALEHRGIQTVEELSKYSEKEILKLHGMGPASLPKLKKVLEESWLSFK
MVTETLSRKADYNANKLRKRLRRLVGTAIADFNMIEKGDRVMVCLSGGKDSYALLDILRNLQAHAPLDFELIAVNLDQKQPGFPEHVLPGYLSEINMPFRIVEQDTYSVVKRVIAEGKTTCSLCSRLRRGVLYRVATELGATKIALGHHRDDILETFFLNMFYGGKLKAMPPKLVSDDGCHVVIRPLAYCKEKDLAAYAWHAQFPIIPCNLCGSQPNLQRQVIKEMMQQWDKKYPGRLETMFTALQNIQLSHLADTSRYDFVGLKPHGIAIEEGDKAFDEEPLSVIPVDMDHDDDSTFEPENEHDGGAVQGGVI
MVTKRIIPCLDVHNGRVVKGVNFVNIRDAGDPVEIASYYDKAGADELTFLDITASAEARNIMIDVVRRVAEQVFIPFTVGGGIRTVEDFREILKAGADKVSINSAAVKRPELISEAASRFGSQCVVVAIDAKRRDDNSGWDVYINGGRINTGKDAVEWAVEVEKLGAGEILLTSMDCDGTKKGYDIELTRKVSESVRIPVIASGGAGTMEHFREALVEGKADAVLAASLFHYREIEIMELKKYLKENGIEIRM
MVTLASHLDACPDAAIWGSSKTENLGVEKIIVNVISNSNIRYVLVCGTESRGHLAGHSLLAIHANGIDEQGRITGSQGAIPFIENISGTAVERFQQQVTVLNRIGLNDPEEIRRIVEDYRDKGEAYPEEPMLVCAPKKRQTSFAVPTSGDVIISGEFVMDSKAGIIYTAESL
